Experimental data reported in patent US20180339057A1 (Novo Nordisk, published 2018).

What was measured:
[1] = molecular target: T1, human MIC-1 receptor (hGFRAL, GDNF family receptor alpha like), full length (human, UniProt Q6UXV0 19-394); assay: cell-based or functional assay
T1 sequence (looked up): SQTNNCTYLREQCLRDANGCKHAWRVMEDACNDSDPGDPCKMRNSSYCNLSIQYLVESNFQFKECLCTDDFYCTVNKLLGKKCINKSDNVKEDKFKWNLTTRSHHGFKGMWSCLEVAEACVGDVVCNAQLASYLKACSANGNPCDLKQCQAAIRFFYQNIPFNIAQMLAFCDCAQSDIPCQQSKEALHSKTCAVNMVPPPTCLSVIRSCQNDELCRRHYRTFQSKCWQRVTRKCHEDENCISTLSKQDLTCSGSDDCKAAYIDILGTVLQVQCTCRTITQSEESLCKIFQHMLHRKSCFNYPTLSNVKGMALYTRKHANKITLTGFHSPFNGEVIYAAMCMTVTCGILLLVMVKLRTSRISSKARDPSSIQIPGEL

[2] = molecular target: T1, human MIC-1 receptor (hGFRAL, GDNF …); assay: SPA: displacement of 50 pM human [125I]-MIC-1 from BHK21-hGFRAL-IRES-hRET cell membranes
Experimental: Binding potencies of MIC-1 compounds were calculated by IC50 of displacement curves.
BHK21-hGFRAL-IRES-hRET cells were cultured at +37° C. in a humidified atmosphere with 5% CO₂ in complete medium consisting of DMEM with high glucose and sodium pyrovate, heat inactivated 10% Fetal Bovine Serum, 1% Penicillin-Streptomycin, 1 mg/ml G418-Geneticin and 400 ug/ml Hygromycin. Cells were washed twice in ice cold Dulbecco's phosphate-buffered saline (DPBS) and detached mechanically by scraping, transferred in ice cold DPBS into conical centrifuge tubes and centrifuged for 5 min at 1500 rpm at +20° C. Cell pellet was resuspended in a total amount of 10 ml ice cold homogenization buffer A (50 mM Tris, 2.5 mM EDTA, adjust pH7.4 with one EDTA-free protease inhibitor cocktail tablet/50 ml) and homogenized for 20 seconds. The homogenate was centrifuged at 16000 rpm in 20 minutes at +4° C. The supernatant was discarded and the pellet was reconstituted in 10 ml homogenization buffer B (50 mM Tris, 320 mM Sucrose, adjust pH 7.4 with one EDTA-free protease inhibitor cocktail tablet/50 ml) and homogenized for 20 seconds and centrifuged at 16000 rpm in 20 minutes at +4° C. This procedure was repeated one more time. The supernatant was discarded and the pellet was reconstituted in 3 ml homogenization buffer B and homogenized for 10 seconds at low speed. Protein concentration was determined by standard Bradford method and 1.5 mg protein/tube was aliquoted to cryotubes and stored at −80° C. Binding assays were performed in white 96-well plates in a total volume of 200 μl per well. Wheat germ agglutinin SPA beads were reconstituted in assay buffer (50 mM Tris/HCl, 4.5 mM MgCl₂, 0.02% Tween 20 and 0.25% Ovalbumin pH 7.4) and mixed with membrane preparation to give a final concentration of 0.5 mg SPA beads and 10 μg total protein per well. […] The plate was sealed and incubated at +22° C. for 2 hours in a plate shaker set at 350 rpm and thereafter centrifuged at 1500 rpm for 10 minutes prior to reading of SPA bead light emission.

Binder | Luciferase + 0.1% HSA NNDK EC50 (pM) [1] [pM] | Luciferase NNDK EC50 (pM) [1] [pM] | IC50 [2] [nM]
SEPATSGSETPGTSESATPESGPGTSTEPSEG-MIC-1-des-N3 (M57L, M86L) (ligand, homodimer; no protractor) SEPATSGSETPGTSESATPESGPGTSTEPSEGARGDHCPLGPGRCCRLHTVRASLEDLGWADWVLSPREVQVTMCIGACPSQFRAANLHAQIKTSLHRLKPDTVPAPCCVPASYNPLVLIQKTDTGVSLQTYDDLLAKDCHCI | 64 | 85 | 119
Compound 01 (ligand, Cys-29 (residue 4 of SEQ ID NO: 288): S{Beta}-[2-[2-[[2-[2-[2-[[2-[2-[2-[[(4S)-4-carboxy-4-(17-carboxyheptadecanoylamino)butanoyl]amino]ethoxy]ethoxy]acetyl]amino]ethoxy]ethoxy]acetyl]amino]ethylamino]-2-oxoethyl]Cys (protractor of Example 10.4), homodimer, two protractors per dimer) SEPCTSGSETPGTSESATPESGPGTSTEPSEGARGDHCPLGPGRCCRLHTVRASLEDLGWADWVLSPREVQVTMCIGACPSQFRAANMHAQIKTSLHRLKPDTVPAPCCVPASYNPMVLIQKTDTGVSLQTYDDLLAKDCHCI | 59 | 72 | 3.8
Compound 02 (ligand, Cys-27 (residue 6 of SEQ ID NO: 291): S{Beta}-[2-[2-[[2-[2-[2-[[2-[2-[2-[[(4S)-4-carboxy-4-(17-carboxyheptadecanoylamino)butanoyl]amino]ethoxy]ethoxy]acetyl]amino]ethoxy]ethoxy]acetyl]amino]ethylamino]-2-oxoethyl]Cys, homodimer, two protractors per dimer) SEPATCGSETPGTSESATPESGPGTSTEPSEGARGDHCPLGPGRCCRLHTVRASLEDLGWADWVLSPREVQVTMCIGACPSQFRAANMHAQIKTSLHRLKPDTVPAPCCVPASYNPMVLIQKTDTGVSLQTYDDLLAKDCHCI | 107 | 123 | 4.9
Compound 03 (ligand, Cys-27 (residue 6 of SEQ ID NO: 291): S{Beta}-[2-[2-[[2-[2-[2-[[2-[2-[2-[[(4S)-4-carboxy-4-(15-carboxypentadecanoylamino)butanoyl]amino]ethoxy]ethoxy]acetyl]amino]ethoxy]ethoxy]acetyl]amino]ethylamino]-2-oxoethyl]Cys (protractor of Example 10.2), homodimer, two protractors per dimer) SEPATCGSETPGTSESATPESGPGTSTEPSEGARGDHCPLGPGRCCRLHTVRASLEDLGWADWVLSPREVQVTMCIGACPSQFRAANMHAQIKTSLHRLKPDTVPAPCCVPASYNPMVLIQKTDTGVSLQTYDDLLAKDCHCI | 106 | 96 | 11
Compound 04 (ligand, Cys-27 (residue 6 of SEQ ID NO: 291): S{Beta}-[2-[2-[[2-[2-[2-[[2-[2-[2-[[(4S)-4-carboxy-4-(13-carboxytridecanoylamino)butanoyl]amino]ethoxy]ethoxy]acetyl]amino]ethoxy]ethoxy]acetyl]amino]ethylamino]-2-oxoethyl]Cys (protractor of Example 10.3), homodimer, two protractors per dimer) SEPATCGSETPGTSESATPESGPGTSTEPSEGARGDHCPLGPGRCCRLHTVRASLEDLGWADWVLSPREVQVTMCIGACPSQFRAANMHAQIKTSLHRLKPDTVPAPCCVPASYNPMVLIQKTDTGVSLQTYDDLLAKDCHCI | 58 | 90 | 17
Compound 05 (ligand, Cys-26 (residue 7 of SEQ ID NO: 289): S{Beta}-[2-[2-[[2-[2-[2-[[2-[2-[2-[[(4S)-4-carboxy-4-(17-carboxyheptadecanoylamino)butanoyl]amino]ethoxy]ethoxy]acetyl]amino]ethoxy]ethoxy]acetyl]amino]ethylamino]-2-oxoethyl]Cys (protractor of Example 10.4), homodimer, two protractors per dimer) SEPATSCSETPGTSESATPESGPGTSTEPSEGARGDHCPLGPGRCCRLHTVRASLEDLGWADWVLSPREVQVTMCIGACPSQFRAANLHAQIKTSLHRLKPDTVPAPCCVPASYNPLVLIQKTDTGVSLQTYDDLLAKDCHCI | 63 | 57 | 23
Compound 06 (ligand, Cys-25 (residue 8 of SEQ ID NO: 303): S{Beta}-[2-[2-[[2-[2-[2-[[2-[2-[2-[[(4S)-4-carboxy-4-(17-carboxyheptadecanoylamino)butanoyl]amino]ethoxy]ethoxy]acetyl]amino]ethoxy]ethoxy]acetyl]amino]ethylamino]-2-oxoethyl]Cys (protractor of Example 10.4), homodimer, two protractors per dimer) SEPATSGCETPGTSESATPESGPGTSTEPSEGARGDHCPLGPGRCCRLHTVRASLEDLGWADWVLSPREVQVTMCIGACPSQFRAANLHAQIKTSLHRLKPDTVPAPCCVPASYNPLVLIQKTDTGVSLQTYDDLLAKDCHCI | 61 | 81 | 21
Compound 07 (ligand, Cys-15 (residue 18 of SEQ ID NO: 292): S{Beta}-[2-[2-[[2-[2-[2-[[2-[2-[2-[[(4S)-4-carboxy-4-(17-carboxyheptadecanoylamino)butanoyl]amino]ethoxy]ethoxy]acetyl]amino]ethoxy]ethoxy]acetyl]amino]ethylamino]-2-oxoethyl]Cys (protractor of Example 10.4), homodimer, two protractors per dimer) SEPATSGSETPGTSESACPESGPGTSTEPSEGARGDHCPLGPGRCCRLHTVRASLEDLGWADWVLSPREVQVTMCIGACPSQFRAANLHAQIKTSLHRLKPDTVPAPCCVPASYNPLVLIQKTDTGVSLQTYDDLLAKDCHCI | 198 | 121 | 29
Compound 08 (ligand, Cys-3 (residue 30 of SEQ ID NO: 293): S{Beta}-[2-[2-[[2-[2-[2-[[2-[2-[2-[[(4S)-4-carboxy-4-(17-carboxyheptadecanoylamino)butanoyl]amino]ethoxy]ethoxy]acetyl]amino]ethoxy]ethoxy]acetyl]amino]ethylamino]-2-oxoethyl]Cys (protractor of Example 10.4), homodimer, two protractors per dimer) SEPATSGSETPGTSESATPESGPGTSTEPCEGARGDHCPLGPGRCCRLHTVRASLEDLGWADWVLSPREVQVTMCIGACPSQFRAANLHAQIKTSLHRLKPDTVPAPCCVPASYNPLVLIQKTDTGVSLQTYDDLLAKDCHCI | 651 | 139 | 56
Compound 11 (ligand, Cys-29 (residue 4 of SEQ ID NO: 290): S{Beta}-[2-[2-[[2-[2-[2-[[2-[2-[2-[[(4S)-4-carboxy-4-(17-carboxyheptadecanoylamino)butanoyl]amino]ethoxy]ethoxy]acetyl]amino]ethoxy]ethoxy]acetyl]amino]ethylamino]-2-oxoethyl]Cys (protractor of Example 10.4), homodimer, two protractors per dimer) SEPCTSGSETPGTSESATPESGPGTSTEPSEGARGDHCPLGPGRCCRLHTVRASLEDLGWADWVLSPREVQVTMCIGACPSQFRAANLHAQIKTSLHRLKPDTVPAPCCVPASYNPLVLIQKTDTGVSLQTYDDLLAKDCHCI | 62 | 55 | 29
